# Assay results reported in patent US20140212406A1 (INSTITUT NATIONAL DE LA SANTE ET DE LA RECHERCHE MEDICALE …, published 2014).
# Target: T1, rat wild type tPA (Rattus norvegicus), 6xHis-tagged (rat, UniProt P19637 33-559)
# T1 construct: mature; Produced in HEK-293 cells and purified on Ni-NTA; also called wt-tPA; rat wt-tPA
# Assay: binding of tPA variants to a solid-phase fibrin surface on PVC plates (3 independent experiments, 12 doses)
binder,measurement,value
fibrin (other) chain 1: GPRVVERHQSACKDSDWPFCSDEDWNYKCPSGCRMKGLIDEVNQDFTNRINKLKNSLFEYQKNNKDSHSLTTNIMEILRGDFSSANNRDNTYNRVSEDLRSRIEVLKRKVIEKVQHIQLLQKNVRAQLVDMKRLEVDIDIKIRSCRGSCSRALAREVDLKDYEDQQKQLEQVIAKDLLPSRDRQHLPLIKMKPVPDLVPGNFKSQLQKVPPEWKALTDMPQMRMELERPGGNEITRGGSTSYGTGSETESPRNPSSAGSWNSGSSGPGSTGNRNPGSSGTGGTATWKPGSSGPGSTGSWNSGSSGTGSTGNQNPGSPRPGSTGTWNPGSSERGSAGHWTSESSVSGSTGQWHSESGSFRPDSPGSGNARPNNPDWGTFEEVSGNVSPGTRREYHTEKLVTSKGDKELRTGKEKVTSGSTTTTRRSCSKTVTKTVIGPDGHKEVTKEVVTSEDGSDCPEAMDLGTLSGIGTLDGFRHRHPDEAAFFDTASTGKTFPGFFSPMLGEFVSETESRGSESGIFTNTKESSSHHPGIAEFPSRGKSSSYSKQFTSSTSYNRGDSTFESKSYKMADEAGSEADHEGTHSTKRGHAKSRPV chain 2: GHRPLDKKREEAPSLRPAPPPISGGGYRARPAKAAATQKKVERKAPDAGGCLHADPDLGVLCPTGCQLQEALLQQERPIRNSVDELNNNVEAVSQTSSSSFQYMYLLKDLWQKRQKQVKDNENVVNEYSSELEKHQLYIDETVNSNIPTNLRVLRSILENLRSKIQKLESDVSAQMEYCRTPCTVSCNIPVVSGKECEEIIRKGGETSEMYLIQPDSSVKPYRVYCDMNTENGGWTVIQNRQDGSVDFGRKWDPYKQGFGNVATNTDGKNYCGLPGEYWLGNDKISQLTRMGPTELLIEMEDWKGDKVKAHYGGFTVQNEANKYQISVNKYRGTAGNALMDGASQLMGENRTMTIHNGMFFSTYDRDNDGWLTSDPRKQCSKEDGGGWWYNRCHAANPNGRYYWGGQYTWDMAKHGTDDGVVWMNWKGSWYSMRKMSMKIRPFFPQQ chain 3: YVATRDNCCILDERFGSYCPTTCGIADFLSTYQTKVDKDLQSLEDILHQVENKTSEVKQLIKAIQLTYNPDESSKPNMIDAATLKSRKMLEEIMKYEASILTHDSSIRYLQEIYNSNNQKIVNLKEKVAQLEAQCQEPCKDTVQIHDITGKDCQDIANKGAKQSGLYFIKPLKANQQFLVYCEIDGSGNGWTVFQKRLDGSVDFKKNWIQYKEGFGHLSPTGTTEFWLGNEKIHLISTQSAIPYALRVELEDWNGRTSTADYAMFKVGPEADKYRLTYAYFAGGDAGDAFDGFDFGDDPSDKFFTSHNGMQFSTWDNDNDKFEGNCAEQDGSGWWMNKCHAGHLNGVYYQGGTYSKASTPNGYDNGIIWATWKTRWYSMKKTTMKIIPFNRLTIGEGQQHHLGGAKQVRPE,Kd,0.26 nM
